The values that follow come from the NTF2 design screens of Basanta et al. (2020).

This data set can be described thus: protease stability score; higher = more stable; yeast display proteolysis, trypsin and chymotrypsin.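 Also: log10 excess protease needed over predicted unfolded state with 0 meaning unfolded.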
Regarding “DEEDMQRFFKEFLKAQETGDPDEIRRQMDPNARAHVGDKEYHGREQVAKMFRDVRERVDRIRIESVDIQGNKANVDVTYNVNGRKARINVTLKAHNGRFKEMHFNPEDTKEMEK”, the protease stability score came to 0.033. For “DEEDNETALRTMMELIVEGNTNQAHRLFDENATVKIGDTTFHGREQIAQAIRHLHEQADHMEVKDFRLTGDKARANVQLHHNGKTIEVDVVFRVSNGRVKHMFIDPQQVRHLRG” the value was 1.05. “DEEDNKTAKKLAKTGDPDEFAEQADEDVHIVVGDFEVHGRDELRKLMKRLKDHIDHKEIKRLRVHNGHVDLKFKAVFNGQEMEVSVILTARNGKIKRLEFRVRDDHAHELLEHLLK” yielded a protease stability score of 1.03. To “DEEDNTKLKRIMQTGDFETLVHQADENAEFHYGDKTYHGNDQAHKAVENQKKQFDKIEVRSIETKNGHVHVEFRIEVNGRELVLTAFANVHNGRVKNATVQARSEEDRKSLKELDR” belongs 0.044; to “DEEDNTRLVNLFEHNDWDTIADQADPEAQLVIGDKTYTGREEVKKALSTLVERVDRIEFKRFDVHGNKIHVKMELRFDGRNIELVMRITIKNGRIKSIKIRARDKEVEKILKEMHS”, 1.22.

“DEEDQAKELAERYLEAMENGDEEKNARLADKDVSLTVGDKHVHGREELKKWFRTFVHRVDHVEIQVHDVKVSNGNATIDAEIKYTFNGRDVKKQVLMHAHVKNGELTLKRMTFE” came in with a protease stability score of 1.02. To “DEEDQEKFARDFVRILKDGNPDRARKMFDENARVHVGEKVVHGRDQIRTLVEEIHRRADRINITDFRVHGNSFVFIVVLEKNGETRSFTIVVIVHNGRAQSMHVQSN” belongs 0.96. For “DEEDQERLEDFLRALKKGDEERLKELVDPNAQFEIGDTTYHGREHFLHTMRRKNEEIRVERDFHTVRAENGHVEMHFHAQENHNGRPRTFTAHATAVIHNGRLKSFVLKVDG” the value was -0.026; for “DEEDQHVAKEFFSAMLTNDTDKLRRLADPNVRAHIGDKVIHGKEQFVRHVHELVEHQRVQVDRMDLDVDGERVRVEMRHVNEENGQPNDRKAKNSMDIHNGEIKYVTIKTQS”, -0.437.

The sequence “DEEDQKELADEMVKVLETGDEDRFSQLLDKDVNINVGDQTYSGSEQAVKWFRELLDNVDSFKFDRVRVNGDQLQIHAILDVNGHDIHVVFQVQFHNGRAQHLNMRYTDDEEKKRFDS” gave a protease stability score of 1.34.

“DEEDQKHAESFFRNLINNNPEKLKEMADPNAEFEVGDKTLNGTEDLSKWAQKLKDQARMSIQSLTIRVENGRLSATMTFEVEHNGQPDRMKITAHASITNGKITHFMLRLDPKQYKSWVG” yielded a protease stability score of 0.493.

“DEEDQKNFAEQANRALHHGDPRQMATLADKDAEVTVGDREYKGRRDINEAMKDWSDQVDSIEVKSVTVQGNNIVVHFVFVHNGHEHKVVMRITMEGDKATSIHLDEK” came in with a protease stability score of 0.336. To “DEEDQKRKANNVAENLINGNEDEARKYIDKDARVHVGDKTYRGREEARKVWHELRKKVDHLRVEHIDVQGDKVDVQAFFRHNGNQTNIQVHIRMENGHVKSISVDNR” belongs -0.216; to “DEEDQKRVLQEIVRMIQSGDPSQAKRLADPNATAEVGDKTYHGREKLSKYAKDLHDRVDRVHIQHYTVEGNKARIRVEVSVNGRTRQFEVKVQYHNGHITRLKVDTS”, 0.05; to “DEEDQKTVEEFLHNLEKNNEDQIKRLLDKDVKFIIGDKELHGMEDAVDRLRRHIEEMKVRIESVSNTVSGDKVVVDFTFIEDQNGKPDRKRMKIEFRFHNGKAKEIRIETRQ”, 1.38. For “DEEDQKVFERILEIFKTGDEEEAQKNMDKDVRVQYGDKQLHGRENIARELQTKMNELRYKFSIESVENHNGQVRVNFQFVENHNGRPSRKKAKLVVHFRNGKLRNFEQQDVS” the value was 0.534; for “DEEDQLKEIVERVHDVYKHGDEDKVRKMVDPNARARIGDKRIHGHDNFAKMIAEWKRKADSVSVHVEEFRVSGNKMTMTIRIKMDHNGRDTTFRYTAVATNTNGRVRVVRIQEK”, 0.049.

Sequence “DEEDQRRVAHDAADALRTGDPDRMVQLADPNVTLDIGDKRFTGDEEFHKAMKEISRQVDHMKIDSYTVRNGRASISAVLEVNGKRKRVFFVFVIHNGRIKELHIKTE” had a protease stability score of 1.59. To “DEEDQRTIAKEVVKVMETGDEDRMRELVDEDVKVQYGDKTVHGREQAQRAMKDLRRRADHITMDSVTVHNGEITIKAQLKYNGQNQRVVVQVRVHNGKIKEFRFREQ” belongs 1.34; to “DEEDRHELQRRAEHGDFLNLAHNADPNAHIKVGDKDLTGREDLDHVLRKMHNRIDRYHLVHVTKTGDKLVVRAQARVDGRDIEFKMEIRARNGRIKEVSIRFRSEEDQKTFEKLLK”, 0.059. For “DEEDRKSLHDLNRTGDEDEIAHNVDPNAKLDVGEFKVHGSEQVKKVMEELKKRIDHRHIRSISVRGDKLVARVQIDVNGQTAYYRLIIRVHNGRIKEINADYTSEDDKKAVNEAKS” the value was 0.756; for “DEEDRRKAKEAAERNDWKHFSDQMDEDVRVLVGDKRFHGREEAKQFVQKVEDRADTQSVDSVDVQGNQVDLDMKLNINGNDVRAQFEFYFHNGRIKEIKVTFTDPREERQFKELIK”, 1.25. For “DEEDSKQMKQVLEAIRRGDEDHVRQQFDPNARIRVGDKEYHGMEEYASDLRSKRSKLDHKINLKTMSASNGRIDFVVQVQFTIDGQPVTDEVRATAVVHNGKIVSLSNEVDEERISEVEK” the value was -0.705; for “DEEDVDRAARKFAEGNPDDVLKLADPNAELHVGDQTVHGKEDLERVMELDKRRIDHIHVNSMSVQGDNVKVLFKVVVNGRNIEFTLTANAHNGSIQFVMLNFTDERDEDKRRKALS”, 0.28; for “DEEDVDRFAKTFAEIFQSGNPENIREMMDPNARLHVGERTYHGRETIVQYLKRLRRDVDSIHLVSITNHGESIVIKVSLDVNGQHVVVHINVHFQNGRIKSMSMTYRDEEDRKKYEG”, 2. The sequence “DEEDVEKMVRLVRDGDWEQFARNADENVRIQIGNREVHGRNEAHKAADKLTKHIDHFRIDRYDRNGDKLDVLFRMTVNGQEVKARMYVEVHNGRVTRMEIRATSEEILKRIDEVLS” registered a protease stability score of 1.37. To “DEEDVKKAETLIKNGDWERIANHLDPNAKATYGDKTFHGHEELKRVIKNLQDQVDSLHIHKVDVQGNSVIVSADLHVNGETLKMTFVMHVHNGRVKEVSANVTSSELKELLDHMLS” belongs 0.749.

As for “DEEDVKKILDKVLKMAVKGDKDQVKTMLKPDVEYIHIDEKRQGQQVAEQVHKEIKKVGARAEIKEKTVEGDKAKVTYQFKVNGRTVEVTAEVEAKDGRVDKWQVHISDEAKEMMTKG”, the protease stability score was -0.289. To “DEEDVKRAERFQKHYQQGNTEEMRKLLDKNARIEVGDKTLHGRDDAKDKLRKNLDNWRFSMDSVDNKLKNGQVRIDIKYRMVINGRPFSITYKLNVKFENGKVQFMEDRISEDDQRHLEK” belongs 0.582; to “DEEDVKRAVEIFNTNNEEDLRRLVDKHAKITVGDKDVHGRKTAETLIHKLNSQADRIHLESVHKNGEQVVIKMVADVNGEKLDFQIVFVIKNGRLTSQRNVARNEDVERTLKNLYS”, -0.119. For “DEEDVKRFAREFFTALQKNDEKKVTDLVDENARAEVGEREYHGREDVATMLARFNKRVDHAHLKRLEVTGDQVIMVFEVVHDGRKTNVSIDMRVHNGRLLEFRMETS” the value was 1.41; for “DEEDVKTLMNLMRNNNFEDLQRMADPNAKVIVGDQTYQGQKEVRTFLHKLKDQIDHLDIKSLDYHNGRVVLDVEATVNGQRFRYVLTVDVHNGHVKSVRFQARSEKDERILKEQAS”, 1.11. To “DEEDVKTMIRIINTGDPDKFEKYFDPNASVRIGDHTFKGNKQVSEFIRRMRRKADHIEVKRVKTTNGRADIDLVVTFNGREIRFHVHAEAHNGKAERQELKVTDPNQQKELNNLVH” belongs 0.837.

In turn, “DEEDVRRMENVVRENNEHRLAQLADKNARMTVGDQTYHGKEKIAEAIRRVQKQVDHMEIERLTIHGDKIRADVTMVVNGQRFRYVVVFNVKNGRLKERSVNFRDERDSEEFKKIEK” showed a protease stability score of 0.021. For “DEEDVRRVAKQAKEYVQKGNKEKLMDLGKEGVDYRVLDHKAKGPEAIKTMQDYLERKGARVEVKKLEVKGDQVRTEVHYKQGDTTATAEVHATVKGGKIDKVKVDLSDRAKEILKHG” the value was -0.141. For “DEEDVTRLAEEMVRAFESGNPEDWVKMLDENARVRIGDKVYHGREQVQTFANSWVSRADHARVESFSVHGDNIHIKAVMDIDGVRVQVIIVARAHNGRVQELRVEWRNEDQKKHVDK” the value was 1.

In turn, “DEEDYKKMNEQLERIYKHGDPEEAEKMFDPNAKAEVGDKTIHGREEFRKYQQDRKDQADHVQVKDFKVQGERFVMEVVAHVNGREVRQVVNFTVHNGKIQDLKVREK” came in with a protease stability score of 0.013. For “DEEDYKSIATEFVQALREGDEQHFRRLLDEEVNNDVGDKRIRGREKVETELRKILHKVDHVDVKDYKVHNGHVTVDMRFDDNGKEERWTMQAQFHNGRLKSIWMRTR”, the protease stability score turned out to be 1.08.

In turn, “DEEEADKVAKDFNRMLTKGDEHRASQLFDENATVVVGDKTVHGTESIKKIIHEIHRKADHIEIDSVKNRGNKVQVDLHQDINGTRERYVFHVSFHNGRIKYAEINQD” yielded a protease stability score of -0.322. To “DEEEADSWMKILQTNDEKKARDNIDPNATAHVGEQRFDGAQDFVARFMQVLKSADHVRIHSVDHEGDKVRMDITFDINGQRARVVLNIQIKNGRVVHVSVEVRNEEVKKVFDKALK” belongs 0.16; to “DEEEAEKILEKLVKAVENGDETKLMQLGADGVRYKVGDREDHGPEAIQKAMQYLKRYGVRVEFKEVKHKGDRVTTVAEYENGDKRNTVTIHAHAKGGKIDEVQVNVDEDLVKFIKHG”, 0.266; to “DEEEAHELLKKVLHYTVKGNVDELRKFVKPDLKYVLGDQEHQGSQVADQVEKEIRRQGTRLEVEKAEVKGDKAELQYRFTVAGKTFTLHVRVRAKDHRVDEWKVEMTDDVKEYQKKG”, 0.391. For “DEEEAHKFQEAVERNDFEKFVRNADPNAHVQVGDQHIDGHDKMRKQYHDLKRAADKIEYKSIDVQGDKIDVKFTVRFNGREYEVHMQIEVHNGRLKTVKYDATSEHNRTILQEMMS” the value was -0.032.

“DEEEAHKVKDVVENGDPDTLQNMADKDATARYGDKQVHGREQVRTAIKLWMDHVDHIDIRNIHVEGNKVNVDAVFNVNGRNLNVRFRMEVHNGKIKSFELQATDERIRETLERILS” had a protease stability score of 1.02. For “DEEEAHKVQEAWKTGDPDHLRDLFDKDVRLVYGDQEVHGREELVKIFKKQQDQYDHQHIERVSLTGNRVEIRYKAVVNGQTVSRVIYIKIKNGRIKEMEIRATNPEELKEMYRLAS” the value was 0.284.

On to “DEEEAKEFADVFKNGDQDRYADLFDPNARVNIGNKEYHGRERVRTAVRTFFQRIDHIQVNHVRIEGNQLRIDAKMEINGQRIQVVFKVRIHNGHIKQFVVDFRDEQTMREFHKQLE”, for which the protease stability score worked out at 1.27. For “DEEEAKEMMEKWMKIVEKGDSDKAQKIYKPNVVWENVDKKTQGVKQVKEMVKRIKDQGMEFQVRRAEVEGNTVEVQYDVRIGNTTVTFKVQVKAEGGRIDEVRVELDETAVKQLKKG” the value was 0.31.
